Source: patent US20220048996A1 (F STAR BETA, published 2022)

T1: hOX40-mFc (human)
T1 construct: Dimeric; also called human OX40-mFc
T1 chain: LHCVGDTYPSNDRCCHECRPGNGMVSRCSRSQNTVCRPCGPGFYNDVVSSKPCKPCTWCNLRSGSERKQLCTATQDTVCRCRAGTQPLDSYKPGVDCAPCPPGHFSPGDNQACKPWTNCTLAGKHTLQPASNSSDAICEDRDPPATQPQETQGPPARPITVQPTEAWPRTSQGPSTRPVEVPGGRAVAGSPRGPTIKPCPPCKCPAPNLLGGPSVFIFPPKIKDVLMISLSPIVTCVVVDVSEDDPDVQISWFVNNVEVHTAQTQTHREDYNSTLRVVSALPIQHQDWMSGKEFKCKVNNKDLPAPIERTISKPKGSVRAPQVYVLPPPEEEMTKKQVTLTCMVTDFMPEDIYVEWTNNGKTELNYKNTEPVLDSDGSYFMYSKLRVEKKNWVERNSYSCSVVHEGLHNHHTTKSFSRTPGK

T2: cOX40-mFc (cynomolgus)
T2 construct: Dimeric; also called cyno OX40-mFc
T2 chain: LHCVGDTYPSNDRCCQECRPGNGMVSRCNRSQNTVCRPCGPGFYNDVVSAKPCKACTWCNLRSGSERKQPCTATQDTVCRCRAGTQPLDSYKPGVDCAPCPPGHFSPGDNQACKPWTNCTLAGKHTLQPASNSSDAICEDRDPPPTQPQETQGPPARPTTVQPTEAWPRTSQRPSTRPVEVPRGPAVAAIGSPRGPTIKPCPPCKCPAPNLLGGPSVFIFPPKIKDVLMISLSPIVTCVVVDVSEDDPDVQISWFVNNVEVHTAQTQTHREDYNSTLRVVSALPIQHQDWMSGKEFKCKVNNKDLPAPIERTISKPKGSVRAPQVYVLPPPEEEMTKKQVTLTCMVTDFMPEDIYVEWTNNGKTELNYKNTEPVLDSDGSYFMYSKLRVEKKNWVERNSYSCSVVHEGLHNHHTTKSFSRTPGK

T3: human OX40 expressed on DO11.10 cells (DO11.10-hOX40) (human, UniProt P43489 29-277)
T3 construct: Also used here for OX40 on primary human T cells in the functional rows; also called human OX40 receptor; OX40 on human T cells
T3 sequence: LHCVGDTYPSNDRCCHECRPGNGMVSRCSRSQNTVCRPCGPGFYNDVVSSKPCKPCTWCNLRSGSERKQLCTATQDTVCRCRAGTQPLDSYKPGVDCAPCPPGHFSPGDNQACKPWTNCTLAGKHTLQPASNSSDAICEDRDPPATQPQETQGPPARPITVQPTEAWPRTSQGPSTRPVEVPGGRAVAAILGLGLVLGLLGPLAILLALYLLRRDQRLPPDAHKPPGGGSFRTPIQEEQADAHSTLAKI

T4: cynomolgus CD137 expressed on DO11.10 cells (DO11.10-cCD137) (cynomolgus monkey, UniProt Q07011 24-255 (human entry))
T4 chain: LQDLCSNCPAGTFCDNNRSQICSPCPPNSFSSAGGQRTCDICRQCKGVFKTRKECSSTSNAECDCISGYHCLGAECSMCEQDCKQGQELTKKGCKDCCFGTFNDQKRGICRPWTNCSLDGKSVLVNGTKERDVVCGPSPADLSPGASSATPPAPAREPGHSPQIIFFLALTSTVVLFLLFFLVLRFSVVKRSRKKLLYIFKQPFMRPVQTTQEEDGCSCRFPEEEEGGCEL

T5: cynomolgus OX40 expressed on DO11.10 cells (DO11.10-cOX40) (cynomolgus, UniProt P43489 29-277 (human entry))
T5 chain: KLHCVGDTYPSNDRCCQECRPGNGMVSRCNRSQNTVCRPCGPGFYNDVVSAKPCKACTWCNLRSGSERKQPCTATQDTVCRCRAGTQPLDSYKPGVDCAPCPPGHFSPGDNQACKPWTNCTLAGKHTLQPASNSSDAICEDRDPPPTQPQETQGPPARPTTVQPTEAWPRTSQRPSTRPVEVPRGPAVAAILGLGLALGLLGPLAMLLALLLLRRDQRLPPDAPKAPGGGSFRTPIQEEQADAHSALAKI

T6: cCD137-mFc-Avi (cynomolgus monkey)
T6 construct: 139 used; also called cyno CD137-mFc-Avi; recombinant cyno CD137
T6 chain: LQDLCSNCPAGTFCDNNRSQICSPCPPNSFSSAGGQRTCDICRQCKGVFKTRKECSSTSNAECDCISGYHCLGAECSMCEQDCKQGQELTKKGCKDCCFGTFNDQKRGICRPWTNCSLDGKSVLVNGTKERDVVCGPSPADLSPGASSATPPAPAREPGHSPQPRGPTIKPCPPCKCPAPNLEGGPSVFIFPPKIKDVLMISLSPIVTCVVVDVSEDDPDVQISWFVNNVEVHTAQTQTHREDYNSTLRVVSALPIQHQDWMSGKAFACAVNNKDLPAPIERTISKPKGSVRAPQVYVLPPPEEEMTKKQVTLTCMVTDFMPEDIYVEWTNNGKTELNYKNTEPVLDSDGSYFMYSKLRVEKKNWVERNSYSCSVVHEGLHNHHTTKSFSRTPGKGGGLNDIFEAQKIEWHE

B1: FS20-22-49AA/FS30-5-37 (bispecific antibody, human IgG1, kappa, L234A L235A, V domains shown)
VH: EVQLLESGGGLVQPGGSLRLNCAASGFTFSSYAMSWVRQAPGKGLEWVSAISGSGGSTYYADSVKGRFTISRDNSKNTLYLQMNSLRAEDTAVYYCARSYDKYWGSSIYSGLDYWGQGTLVTVSS
VL: EIVLTQSPGTLSLSPGERATLSCRASQSVSSSYLAWYQQKPGQAPRLLIYGASSRATGIPDRFSGSGSGTDFTLTISRLEPEDFAVYYCQQYYSYYPVTFGQGTKVEIKR
notes: IgG1 with LALA; also called OX40/CD137 mAb^2
B2: FS20-22-49AA/FS30-10-3 (bispecific antibody, human IgG1, kappa, L234A L235A, V domains shown)
VH: EVQLLESGGGLVQPGGSLRLSCAASGFTFSSYDMSWVRQAPGKGLEWVSDIDPTGSKTDYADSVKGRFTISRDNSKNTLYLQMNSLRAEDTAVYYCARDLNVYGFDYWGQGTLVTVSS
VL: EIVLTQSPGTLSLSPGERATLSCRASQSVSSSYLAWYQQKPGQAPRLLIYGASSRATGIPDRFSGSGSGTDFTLTISRLEPEDFAVYYCQQSYSYPVTFGQGTKVEIKR
notes: as for B1
B3: G1AA/FS30-10-16 (antibody, human IgG1, kappa, L234A L235A, V domains shown)
VH: EVQLLESGGGLVQPGGSLRLSCAASGFTFSSYDMSWVRQAPGKGLEWVSDIDPTGSKTDYADSVKGRFTISRDNSKNTLYLQMNSLRAEDTAVYYCARDLLVYGFDYWGQGTLVTVSS
VL: EIVLTQSPGTLSLSPGERATLSCRASQSVSSSYLAWYQQKPGQAPRLLIYGASSRATGIPDRFSGSGSGTDFTLTISRLEPEDFAVYYCQQSYSYPVTFGQGTKVEIKR
B4: FS20-22-49AA/FS30-10-12 (bispecific antibody, human IgG1, kappa, L234A L235A, V domains shown)
VH: EVQLLESGGGLVQPGGSLRLSCAASGFTFSSYDMSWVRQAPGKGLEWVSDIDPTGSKTDYADSVKGRFTISRDNSKNTLYLQMNSLRAEDTAVYYCARDLTVYGFDYWGQGTLVTVSS
VL: EIVLTQSPGTLSLSPGERATLSCRASQSVSSSYLAWYQQKPGQAPRLLIYGASSRATGIPDRFSGSGSGTDFTLTISRLEPEDFAVYYCQQSYSYPVTFGQGTKVEIKR
notes: as for B1

How the values were obtained:
[1] = target: T1, hOX40-mFc; assay: SPR, antibody captured via anti-human Fab, dimeric antigen flowed, 1:1 fit
Procedure: (§1) For OX40 affinity determination a Biacore CM5 chip was coated with anti-human Fab using a Human Fab Capture Kit (GE Healthcare 28958325) according to manufacturer's conditions, to a surface density of approximately 8000 RU. […] The association time was 2 min and the dissociation time was 8 min. Running buffer was HBS-EP. Flow cells were regenerated by injecting glycine-HCl at pH 2.1 at a flow rate of 30 μl/min for 30 seconds.
(§2) The binding kinetics were fit with a 1:1 Langmuir model to generate binding association (kₐ) and dissociation (kd) rates. Equilibrium binding constants (KD) were calculated by dividing the dissociation rate by the association rate for each sample. Data analysis was performed with BiaEvaluation software version 3.2.

[2] = target: T2, cOX40-mFc; assay: as above
Procedure: as §1, §2

[3] = target: T7, human CD137 expressed on DO11.10 cells (DO11.10-hCD137) (human, UniProt Q07011 24-255); assay: flow cytometry on DO11.10 cells expressing the target
T7 construct: also called CD137 on human T cells
Procedure: (§3) 50 μl of the antibody dilutions were added to the wells containing cells (final volume 100 μl) and incubated at 4° C. for 1 hour. […] The plates were washed and resuspended in 100 μl of PBS containing DAPI (Biotium, cat no 40043) at 1 μg/ml. The plates were analysed using a Canto II flow cytometer (BD Bioscience) and the data analysed using FlowJo. Dead cells were identified by their higher fluorescence on the UV (405 nm/450/50) channel and excluded from analysis. […] The GMFI data was fit using log (agonist) vs response (three parameters) in Graph Pad Prism Software to generate EC₅₀ values.

[4] = target: T3, human OX40 expressed on DO11.10 cells …; assay: as above
Procedure: as §3

[5] = target: T4, cynomolgus CD137 expressed on DO11.10 …; assay: as above
Procedure: as §3

[6] = target: T5, cynomolgus OX40 expressed on DO11.10 …; assay: as above
Procedure: as §3

[7] = target: T8, hCD137-mFc-Avi (human); assay: SPR, antibody captured via anti-human Fc, dimeric antigen flowed, 1:1 fit
T8 construct: Dimer; a biotinylated version was used where the text says so; also called human CD137-mFc-Avi; hCD137-mFc-Avi-Bio
Procedure: (§4) For CD137 affinity determination, a Biacore CM5 chip (GE Healthcare) was coated with anti-human Fc using a Human Antibody Capture Kit (GE Healthcare) according to manufacturer's conditions, to a surface density of approximately 4000 RU. […] Human or cynomolgus CD137 (hCD137-mFc-Avi or cCD137-mFc-Avi) was flowed over at a range of concentrations in a three-fold dilution series starting at 200 nM, at a flow rate of 70 μl/min. The association time was 2 min and the dissociation time was 8 min. Running buffer was HBS-EP (GE Healthcare BR100188). Flow cells were regenerated by injecting 3M magnesium chloride at a flow rate of 30 μl/min for 30 seconds.
as §2

[8] = target: T6, cCD137-mFc-Avi; assay: as above
Procedure: as §4, §2

[9] = target: T3, human OX40 expressed on DO11.10 cells …; assay: cell-based or functional assay
[10] = target: T7, human CD137 expressed on DO11.10 cells …; assay: cell-based or functional assay
Target sequence in this assay (Q07011 24-255): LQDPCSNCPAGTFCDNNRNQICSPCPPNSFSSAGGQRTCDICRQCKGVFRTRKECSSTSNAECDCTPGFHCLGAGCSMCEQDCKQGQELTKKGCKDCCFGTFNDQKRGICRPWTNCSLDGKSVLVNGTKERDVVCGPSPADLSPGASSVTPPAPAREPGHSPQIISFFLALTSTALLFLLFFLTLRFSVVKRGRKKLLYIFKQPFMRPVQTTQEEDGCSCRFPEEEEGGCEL

[11] = target: T7, human CD137 expressed on DO11.10 cells …; assay: cell-based or functional assay; remark: listed apart in the source

Binder | Kd [1] | Kd [2] | EC50 [3] | EC50 [4] | EC50 [5] | EC50 [6] | Kd [7] | Kd [8] | SEA assay (PBMC), hIL-2 max response, crosslinked [9] | SEA assay (PBMC), hIL-2 max response, no crosslinker [9] | SEA assay (PBMC), hIL-2 release EC50, crosslinked [9] | SEA assay (PBMC), hIL-2 release EC50, no crosslinker [9] | EC50 of mIL-2 release, DO11.10-hCD137 assay, crosslinked [10] | Emax of mIL-2 release, DO11.10-hCD137 assay, crosslinked [10] | CD8+ T cell activation assay, hIL-2 release EC50, crosslinked [11]
B1 | 0.385 nM | 1.63 nM | 0.258 nM | 0.201 nM | 0.111 nM | 0.355 nM | 3.85 nM | 6.42 nM | 30700 pg/mL | 29200 pg/mL | 0.5 nM | 0.51 nM | 13.4 nM | 18100 pg/mL | 
B2 | 0.285 nM | 1.11 nM | 0.12 nM | 0.175 nM | 0.0682 nM | 0.394 nM | 0.342 nM | 0.318 nM | 33900 pg/mL | 34900 pg/mL | 0.38 nM | 0.29 nM | 6.1 nM | 17000 pg/mL | 
B3 |  |  |  |  |  |  |  |  |  |  |  |  |  |  | 3.88 nM
B4 | 0.37 nM | 1.02 nM | 0.29 nM | 0.152 nM | 0.107 nM | 0.368 nM | 0.255 nM | 7.24 nM | 23700 pg/mL | 24900 pg/mL | 2.33 nM | 1.36 nM | 9.5 nM | 17200 pg/mL | 
